Results published in patent publication US20240409645A1 (DUALYX, published 2024).
Positions count from the first letter of the chain named. Values belong to the binder of their own block, whether it stands above or below them.

Experiments:
[1] = target: T1, mouse common cytokine receptor γ-chain (IL-2Rγ) (mouse, UniProt P34902 23-263, limits assumed); test: P.E. off-rate SPR
T1 construct: Recombinant mouse IL-2Rγ protein; also called mo IL-2R; mouse IL-2R gamma
T1 sequence (looked up): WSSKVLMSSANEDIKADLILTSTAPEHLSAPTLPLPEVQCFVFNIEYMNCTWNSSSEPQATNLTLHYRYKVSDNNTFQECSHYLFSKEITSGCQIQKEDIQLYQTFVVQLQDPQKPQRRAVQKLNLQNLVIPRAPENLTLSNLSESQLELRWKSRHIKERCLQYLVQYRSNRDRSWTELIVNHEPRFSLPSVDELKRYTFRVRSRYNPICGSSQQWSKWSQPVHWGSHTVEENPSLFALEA
Experimental: (§1) SPR was performed to determine dissociation rates using Biacore 3000 instrument (GE Healthcare). Briefly, human and mouse IL-2R proteins were immobilized on carboxylmethyl dextran sensor chip (CM5) at approximately 2500 RUs using amine coupling in acetate buffer (GE Healthcare). The VHH-containing P.E. were loaded with a flow rate of 30 uL/min and the off-rates were measured over a 120s period.

[2] = target: T2, human common cytokine receptor γ-chain (IL-2Rγ) (human, UniProt P31785 23-262, limits assumed); test: P.E. off-rate SPR
T2 construct: Recombinant human IL-2Rγ protein, coated (ELISA) or amine-coupled to a CM5 chip (SPR); also called hu IL-2R; CD132
T2 sequence: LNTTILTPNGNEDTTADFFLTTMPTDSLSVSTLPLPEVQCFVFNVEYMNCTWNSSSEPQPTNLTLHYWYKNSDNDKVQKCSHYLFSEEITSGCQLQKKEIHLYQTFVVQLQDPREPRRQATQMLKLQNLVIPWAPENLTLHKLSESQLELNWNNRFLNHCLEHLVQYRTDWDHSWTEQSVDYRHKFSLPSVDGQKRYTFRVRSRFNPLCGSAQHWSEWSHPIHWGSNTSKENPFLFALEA
Experimental: as §1

[3] = target: T1, mouse common cytokine receptor γ-chain …; test: P.E. binding ELISA
Experimental: (§2) In a binding ELISA, human or mouse IL-2Rα, IL-2Rβ and IL-2Rγ proteins were coated directly on maxisorp microtiter plates overnight at 4° C. Free binding sites were blocked using 4% Marvel in PBS for 1 hour. Next, 1:5 dilution of P.E. in 1% Marvel/PBS were added to wells and incubated for 1 hour. […] Binding specificity was determined based on O.D. at 450 nm values compared to negative controls.

[4] = target: T2, human common cytokine receptor γ-chain …; test: P.E. binding ELISA
Experimental: as §2

- koff [1]: 0.1 s⁻¹
- koff [2]: 0.00303 s⁻¹
- PE binding ELISA OD [3]: 0.047 OD450 nm
- PE binding ELISA OD [4]: 0.51 OD450 nm
B6: FJ1427_P035MP07H08 (VHH)
VHH: QVQLVESGGGLVQAGGSLRLSCAASGRTLSRYAMGWFRQAPGKEREFVTANSWGGDTYYADSVQGRFTFSRDNAKNTVYLQMNSLQPEDTAVYYCAAAPTSFATTAYSSSNSYAYWGQGTQVTVSS
notes: tested as periplasmic extract; also called Clone nr; 640

- koff [1]: 0.1 s⁻¹
- koff [2]: 0.00365 s⁻¹
- PE binding ELISA OD [3]: 0.051 OD450 nm
- PE binding ELISA OD [4]: 1.22 OD450 nm
B7: FJ1427_P035MP07G02 (VHH)
VHH: B6 VHH
notes: tested as periplasmic extract; also called Clone nr

- koff [1]: 0.099 s⁻¹
- koff [2]: 0.00309 s⁻¹
- PE binding ELISA OD [3]: 0.048 OD450 nm
- PE binding ELISA OD [4]: 0.495 OD450 nm
B10: FJ1427_P035MP07G03 (VHH)
VHH: B6 VHH
notes: as for B7

- koff [1]: 0.106 s⁻¹
- koff [2]: 0.00273 s⁻¹
- PE binding ELISA OD [3]: 0.045 OD450 nm
- PE binding ELISA OD [4]: 0.479 OD450 nm
B13: FJ1427_P035MP07G07 (VHH)
VHH: B6 VHH
notes: as for B7

- koff [1]: 0.0274 s⁻¹
- koff [2]: 0.00125 s⁻¹
- PE binding ELISA OD [3]: 0.133 OD450 nm
- PE binding ELISA OD [4]: 0.818 OD450 nm
B17: FJ1427_P035MP07H01 (VHH)
VHH: B6 VHH with S21F, A24T, K43R, T49A, A50C, N51D, Y58F, Q64K, N73S
notes: as for B7

- koff [1]: 0.105 s⁻¹
- koff [2]: 0.003 s⁻¹
- PE binding ELISA OD [3]: 0.047 OD450 nm
- PE binding ELISA OD [4]: 0.504 OD450 nm
B18: FJ1427_P035MP07G08 (VHH)
VHH: B6 VHH with K43R, N83S
notes: as for B7

- koff [1]: 0.191 s⁻¹
- koff [2]: 0.00257 s⁻¹
- PE binding ELISA OD [3]: 0.046 OD450 nm
- PE binding ELISA OD [4]: 0.45 OD450 nm
B19: FJ1427_P035MP07G05 (VHH)
VHH: B6 VHH with T49A, N51D, Q64E, K75N, T77A
notes: as for B7

- koff [1]: 0.112 s⁻¹
- koff [2]: 0.00281 s⁻¹
- PE binding ELISA OD [3]: 0.047 OD450 nm
- PE binding ELISA OD [4]: 1.02 OD450 nm
B20: FJ1427_P035MP07G04 (VHH)
VHH: B6 VHH with Q1E
notes: as for B7

- koff [1]: 0.00331 s⁻¹
- koff [2]: 0.00418 s⁻¹
- PE binding ELISA OD [3]: 0.047 OD450 nm
- PE binding ELISA OD [4]: 1.42 OD450 nm
B21: FJ1427_P035MP07H07 (VHH)
VHH: B6 VHH with G16D, T49A, N51T, T57S, Q64E, T77A, Y115N
notes: as for B7

- koff [1]: 0.0137 s⁻¹
- koff [2]: 0.00236 s⁻¹
- PE binding ELISA OD [3]: 0.049 OD450 nm
- PE binding ELISA OD [4]: 0.572 OD450 nm
B23: FJ1427_P035MP07H10 (VHH)
VHH: B6 VHH with Q1E, T28A, Y32L, T49V, N51S, G55D, Y58F, Q64K, E88G
notes: tested as periplasmic extract; also called Clone nr; 656

- koff [1]: 0.0823 s⁻¹
- koff [2]: 0.00177 s⁻¹
- PE binding ELISA OD [3]: 0.052 OD450 nm
- PE binding ELISA OD [4]: 0.593 OD450 nm
B24: FJ1427_P035MP07H04 (VHH)
VHH: B6 VHH with T49A, N51M, Y58F, Q64E, K75E, N76I, T77A, S126H
notes: as for B7

- koff [1]: 0.00682 s⁻¹
- koff [2]: 0.00122 s⁻¹
- PE binding ELISA OD [3]: 0.74 OD450 nm
- PE binding ELISA OD [4]: 0.682 OD450 nm
B25: FJ1427_P035MP07G10 (VHH)
VHH: B6 VHH with F47Y, T49A, A50I, N51D, Y58F, Q64E, T77E, A97G, A114R
notes: tested as periplasmic extract; also called Clone nr; 655

- koff [1]: 0.118 s⁻¹
- koff [2]: 0.00279 s⁻¹
- PE binding ELISA OD [3]: 0.049 OD450 nm
- PE binding ELISA OD [4]: 1.14 OD450 nm
B26: FJ1427_P035MP07H05 (VHH)
VHH: B6 VHH with T49A, A60T, Q64E, T77A, E88G, A114S
notes: as for B7

- koff [1]: 0.0123 s⁻¹
- koff [2]: 0.00188 s⁻¹
- PE binding ELISA OD [3]: 0.066 OD450 nm
- PE binding ELISA OD [4]: 0.801 OD450 nm
B27: FJ1427_P035MP07H02 (VHH)
VHH: B6 VHH with T28A, Y32L, T49V, N51S, G55D, Y58F, Q64K, E88G
notes: tested as periplasmic extract; also called Clone nr; 592

Continued, binder first:

B1: FJ1427_P035MP07B07 (VHH)
VHH: QVQLVESGGGLVQAGGSLRLSCAASGRSLSRYAMGWFRQAPGKEREFVAAISWGGDSFYTDSVEGRFTFSRDNAKNAVYLEMNDLQPEDTAVYYCAAAPTSFPTTAYSSSNSYSYWGRGTQVTVSS
notes: tested as periplasmic extract; also called Clone nr; 626
- koff [1]: 0.00347 s⁻¹
- koff [2]: 0.00259 s⁻¹
- PE binding ELISA OD [3]: 0.045 OD450 nm
- PE binding ELISA OD [4]: 0.29 OD450 nm

B2: FJ1427_P035MP07C10 (VHH)
VHH: B1 VHH with Y32D, A50V, I51M, S57T, P103A
notes: tested as periplasmic extract; also called Clone nr; 651
- koff [1]: 0.0132 s⁻¹
- koff [2]: 0.00176 s⁻¹
- PE binding ELISA OD [3]: 0.074 OD450 nm
- PE binding ELISA OD [4]: 0.424 OD450 nm

B3: FJ1427_P035MP07F06 (VHH)
VHH: B6 VHH with T28A, Y32L, T49V, N51S, G55D, Y58F, Q64K, E88G
notes: as for B7
- koff [1]: 0.0117 s⁻¹
- koff [2]: 0.00162 s⁻¹
- PE binding ELISA OD [3]: 0.082 OD450 nm
- PE binding ELISA OD [4]: 1.34 OD450 nm

B4: FJ1427_P035MP07E03 (VHH)
VHH: B6 VHH
notes: tested as periplasmic extract; also called Clone nr; 597
- koff [1]: 0.0966 s⁻¹
- koff [2]: 0.00311 s⁻¹
- PE binding ELISA OD [3]: 0.048 OD450 nm
- PE binding ELISA OD [4]: 0.445 OD450 nm

B5: FJ1427_P035MP07A08 (VHH)
VHH: B6 VHH
notes: tested as periplasmic extract; also called Clone nr; 633
- koff [1]: 0.106 s⁻¹
- koff [2]: 0.00255 s⁻¹
- PE binding ELISA OD [3]: 0.049 OD450 nm
- PE binding ELISA OD [4]: 0.889 OD450 nm

B8: FJ1427_P035MP07E06 (VHH)
VHH: B6 VHH
notes: as for B7
- koff [1]: 0.102 s⁻¹
- koff [2]: 0.00272 s⁻¹
- PE binding ELISA OD [3]: 0.046 OD450 nm
- PE binding ELISA OD [4]: 0.464 OD450 nm

B9: FJ1427_P035MP07B05 (VHH)
VHH: B6 VHH
notes: tested as periplasmic extract; also called Clone nr; 610
- koff [1]: 0.11 s⁻¹
- koff [2]: 0.00282 s⁻¹
- PE binding ELISA OD [3]: 0.045 OD450 nm
- PE binding ELISA OD [4]: 0.439 OD450 nm

B11: FJ1427_P035MP07A07 (VHH)
VHH: B6 VHH
notes: as for B7
- koff [1]: 0.0971 s⁻¹
- koff [2]: 0.00173 s⁻¹
- PE binding ELISA OD [3]: 0.047 OD450 nm
- PE binding ELISA OD [4]: 1.04 OD450 nm

B12: FJ1427_P035MP07E10 (VHH)
VHH: B6 VHH
notes: tested as periplasmic extract; also called Clone nr; 653
- koff [1]: 0.107 s⁻¹
- koff [2]: 0.0033 s⁻¹
- PE binding ELISA OD [3]: 0.047 OD450 nm
- PE binding ELISA OD [4]: 0.434 OD450 nm

B14: FJ1427_P035MP07D03 (VHH)
VHH: B6 VHH
notes: as for B7
- koff [1]: 0.107 s⁻¹
- koff [2]: 0.00339 s⁻¹
- PE binding ELISA OD [3]: 0.046 OD450 nm
- PE binding ELISA OD [4]: 1.25 OD450 nm

B15: FJ1427_P035MP07C08 (VHH)
VHH: B6 VHH
notes: tested as periplasmic extract; also called Clone nr; 635
- koff [1]: 0.108 s⁻¹
- koff [2]: 0.00259 s⁻¹
- PE binding ELISA OD [3]: 0.049 OD450 nm
- PE binding ELISA OD [4]: 0.528 OD450 nm

B16: FJ1427_P035MP07C07 (VHH)
VHH: B6 VHH
notes: tested as periplasmic extract; also called Clone nr; 627
- koff [1]: 0.105 s⁻¹
- koff [2]: 0.0025 s⁻¹
- PE binding ELISA OD [3]: 0.047 OD450 nm
- PE binding ELISA OD [4]: 0.469 OD450 nm

B22: FJ1427_P035MP07F10 (VHH)
VHH: QVQLQESGGGLVQAGGSLRLSCAASGRTLSRYAMGWFRQAPGKEREFVACDSWGGDTFYADSVEGRFTFSRDNAKNATYLQMNSLQPEDTAVYYCAGAPTSFATTAYSSSNSYTVWGQGTQVTVSL
notes: tested as periplasmic extract; also called Clone nr; 654
- koff [1]: 0.0121 s⁻¹
- koff [2]: 0.00199 s⁻¹
- PE binding ELISA OD [3]: 0.089 OD450 nm
- PE binding ELISA OD [4]: 0.67 OD450 nm

B28: FJ1427_P035MP07F07 (VHH)
VHH: B6 VHH with Q1E
notes: tested as periplasmic extract; also called Clone nr; 630
- koff [1]: 0.133 s⁻¹
- koff [2]: 0.003 s⁻¹
- PE binding ELISA OD [3]: 0.045 OD450 nm
- PE binding ELISA OD [4]: 0.372 OD450 nm
